# Source: paper doi:10.1101/2024.02.02.578563
# B1: EXO-miR (ssRNA)
# RNA: GGGGAGGUUAGGGAGGAGGGGGGUAGGCGCC
# B2: hsa-miR-1246 (ssRNA)
# RNA: AAUGGAUUUUUGGAGCAGG
# B3: scrEXO-miR-1246 (ssRNA)
# RNA: GUGUGUACGGAUUGUAGAA
# Key:
# Assay in all cases: EMSA
# rGST APE1 WT = rGST APE1 WT (human, UniProt P27695 1-318)
# rGST hnRNPA2B1 = rGST hnRNPA2B1 (UniProt P22626 1-353)
# [1] = target: rGST APE1 NdeltaN33 (APE1NΔ33) (human, UniProt P27695 34-318, del1-33)
# rGST APE1 NdeltaN33 (APE1NΔ33), sequence (P27695 34-318, stated change not applied): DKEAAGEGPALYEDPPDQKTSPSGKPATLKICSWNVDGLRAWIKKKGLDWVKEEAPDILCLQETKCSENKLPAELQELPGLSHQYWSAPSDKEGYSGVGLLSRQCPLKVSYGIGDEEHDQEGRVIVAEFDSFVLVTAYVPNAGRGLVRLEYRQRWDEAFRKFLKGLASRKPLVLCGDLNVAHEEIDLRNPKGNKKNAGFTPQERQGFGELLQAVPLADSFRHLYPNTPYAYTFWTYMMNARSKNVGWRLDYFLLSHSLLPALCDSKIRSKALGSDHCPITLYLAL
# rGST APE1 WT, sequence (P27695 whole entry): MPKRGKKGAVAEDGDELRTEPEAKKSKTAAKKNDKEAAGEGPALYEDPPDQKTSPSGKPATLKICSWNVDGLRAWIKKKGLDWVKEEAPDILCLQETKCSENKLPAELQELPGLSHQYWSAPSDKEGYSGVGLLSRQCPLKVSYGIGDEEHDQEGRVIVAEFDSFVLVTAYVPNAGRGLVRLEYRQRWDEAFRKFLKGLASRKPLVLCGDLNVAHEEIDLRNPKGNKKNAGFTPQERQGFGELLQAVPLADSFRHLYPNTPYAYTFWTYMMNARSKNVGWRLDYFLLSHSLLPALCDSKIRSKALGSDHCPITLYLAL
# rGST hnRNPA2B1, sequence (P22626 whole entry): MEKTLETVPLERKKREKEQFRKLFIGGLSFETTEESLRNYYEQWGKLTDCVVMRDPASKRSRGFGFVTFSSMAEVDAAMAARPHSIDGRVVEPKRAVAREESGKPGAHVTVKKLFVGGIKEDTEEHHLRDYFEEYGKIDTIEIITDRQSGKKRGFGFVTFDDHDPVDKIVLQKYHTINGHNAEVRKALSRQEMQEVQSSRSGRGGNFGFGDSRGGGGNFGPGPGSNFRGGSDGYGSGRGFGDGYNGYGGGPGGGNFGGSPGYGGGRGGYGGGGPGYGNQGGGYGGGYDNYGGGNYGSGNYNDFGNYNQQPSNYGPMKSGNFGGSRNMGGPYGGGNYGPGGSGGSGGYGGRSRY
binder,measurement,setting,value
B1,binding result,rGST APE1 WT,binds
same,binding result,rGST hnRNPA2B1,binds
B2,binding result,rGST APE1 WT,binds
same,binding result,[1],no binding
same,binding result,rGST hnRNPA2B1,binds
B3,binding result,rGST APE1 WT,no binding
